Results as given in the DeepSol protein solubility set.

Experiment: soluble on expression in E. coli; label from the status in PepcDB or PDB records

Sequence	soluble on expression in E. coli
MGSDKIHHHHHHMAKGNKIPLTFHTYQDAATGTEVVRLTPPDVICHRNYFYQKCFFNDGSKLLFGAAFDGPWNYYLLDLKEQNATQLTEGKGDNTFGGFLSPNDDALYYVKNTRNLMRVDLTTLEEKTIYQVPDDWVGYGTWVANSDCTKMVGIEIKKEDWKPLTDWKKFQEFYFTNPCCRLIRVDLVTGEAETILQENQWLGHPIYRPGDDNTVAFCHEGPHDLVDARMWFINEDGTNMRKVKEHAEGESCTHEFWVPDGSAMIYVSYLKDDTNRYIRSIDPVTLEDRQLRVMPPCSHLMSNYDGTLLVGDGSDAPVDVQDDGGYKIENDPFLYVFNLKTGKEHRIAQHNTSWEVLEGDRQVTHPHPSFTPDNKQVLFTSDVDGKPALYLAKVPDSVWN	not soluble
MNVVQVEYLNVAEIKALLNSTISKLNPRYTSNYMIVTAILTGARLSEIAGLTWNDINFNFNTININKSYDYFAKSFKPTKNKSSNRIIKINNTLCDVLKELRTNNTDLVFKNKRGLIPTSNAVNKALRARLEELNINRRNFHFHSLRHSHVAFLLSQGIDIYPIAQRLGHSDITTTTRTYAYLIEEYKDKNDAIIIAGLDKLEHHHHHH	not soluble
MYGKLLICATASINVININHYIVELKQHFDEVNILFSPSSKNFINTDVLKLFCDNLYDEIKDPLLNHINIVENHEYILVLPASANTINKIANGICDNLLTTVCLTGYQKLFIFPNMNIRMWGNPFLQKNIDLLKNNDVKVYSPDMNKSFEISSGRYKNNITMPNIENVLNFVLNNEKRPLD	soluble
LDEYQVSQDRLVESEERYRQLVESAPDAVLIHCDGRYVFANPAALRLYGADTADQLLGREITDFVHPNSRQVVAERIKLLYQERSPAPLCEQQIVRLDGTVVDVEVVGIPYSHQGRPAVQAVLREIT	not soluble
MGSDKIHHHHHHMQDDRLFPYGHARGAGWREALSSALEMAGPRVRGGTLGFLYVTDSFESDLPDILSAVREQTGVPHWTGCVGAGICATAQEYLDEPALAFMVTDFPETEFRLFAGMGPYRTGKSWPTGPGRPPYFAIVHGDSQTPDLPDLVRDFAGQMGSGFITGGICSSRTDGAQLVDEVVHGGLSGVTFSENIAVATRLTQGCSPIGPIHHINEAHNNVISRLDDRPALDVFNDETCDILSRDLQRAAGFIFVAMPVKNDDRGDYMVRTLVGIDIERKLLAIGEYAEAGQSLMFCKRDSGTAGEDLERMLSDISRLADGRKIRGGLYFTCVWRGQNLFGPDSAELRMIRDGLGDFPLVGFFANAEISHDKIYGYTGVLTLFLDAPTS	not soluble
MAHHHHHHMGHKNSSNISSAPVPPPFYVLPGVPVPSLKPSNLDFSATSGKPILCAGWIAPHGNRSWSRRNVVYSSEIEIPVPQPCQVRVKIYAAGVNPADAHRTAVLPSSPEVGTSGKSRRASRHPRPPFKFPYVVGIEGAGVVESVGWAAASSGERDGSAGALTSANARDIRVGDRVAFLADLMQESGGTFCQYAVVDSDVLWKLPEVVCAPPPSTGGLVPGRLIDFVEAASLPAAAATAYIALFDKLRIETQRAIFISGASGGVGSAAVQLAHYFGLYVIASCSTPNVRYVQSLGADYVVDYTRADVVEEILTYTDNYGVDYLLECAGAFMAEAHSETVRFGGALCVLTGLLSPRSDIVFRRQLSVHYVCLGMQHQDPLARTQLQPLGELVMQLYIQGAFSVNAEQVPFVQAADALDLVASGHGRGKIVLTNFHTNEEKEERLRRRHVQLYEKAQHQYQVEETQKAAGAAAATAASEAASREAG	not soluble
MEAGGLPLELWRMILAYLHLPDLGRCSLVCRAWYELILSLDSTRWRQLCLGCTECRHPNWPNQPDVEPESWREAFKQHYLASKTWTKNALDLESSICFSLFRRRRERRTLSVGPGREFDSLGSALAMASLYDRIVLFPGVYEEQGEIILKVPVEIVGQGKLGEVALLASIDQHCSTTRLCNLVFTPAWFSPIMYKTTSGHVQFDNCNFENGHIQVHGPGTCQVKFCTFKNTHIFLHNVPLCVLENCEFVGSENNSVTVEGHPSADKNWAYKYLLGLIKSSPTFLPTEDSD	soluble
MFKVTFAFENGSEVEAFANAGDNLLEVARGANVAIDAPCSGNGACGKCRVQLKGGELDSKKTLHISDEEFEKGWRLACMSKICADVEVLVPDIASAYKSRMKVADLSSKEEIAIFEKAKNQVEETGIQLRNSLEVVELQMTEPTLDDTMPDVERLTRALRKFMNLKRIRVPYAVLRKLPDVLRASKFSVKCVVRVTPDDMFVYDIFDAKEDVIMGGLAVDIGTTTVSAVIINMATGEILAKSSSGNGQIRYGADVINRIIETTKPGGIKKLQDAVIKETINPMIHEMCRSIHLPENQIYRMCVASNTTMNHLFAGINADYLRTEPYIPAFFKTNSLFASDVGIEINGDAHIIMAPNIGSYVGGDITAGTLVSMIWNRPEFSLFIDLGTNGELVFGNSDFMMSCACSAGPAFEGGDISCGMRATDGAIEACTIDKETMEPTYKVVGEPGTKPVGLCGSGIIDVISELFMTGIINPKGKFVREGKRVRHDHYGMGSYVIAFEEEAGSVKDVEITEVDIDNFIRAKGAIFSAIRTMLSSLDFDVSMIDDVYVAGGIGSGINMQNAVNIGMFPDVPLEKFHYIGNSSLTGAYLMLLSTQAEKKTYELASNMTYMELSTVPTYMDEFVGACFIPHTDASMFPNVHQRLEHHHHHH	not soluble
MSLKSNVYYEELAKQNAIKTEFLPPVRGQITDRNGTLLAINDLGFSISIKPYLSIKKSNKGILDKELSELTNLFPDLNASKLAEIYKRNDSYYNQDFIKVVDFIPYDEIISHYSELNLNKTIKIDPVVKRKYPFGKLASHIIGYVGKANLQDVQENEIAKLSNYTGKSGIERYYNDILQGEKGTRVYKVNALNQEVEQLSYTPAMSNDIELTIDIELQSYLTSLFEGNAGAAIIMNVNDGSILAAGSFPEYDLNPFVTGISFKDWDELSNSLDHPFTNKLINGYYPPGSVVKMGVGLSFLNSKNISPSTHYVCNGSIELGGRFFRCWNRSGHGPVDLKHAIKYSCDVYFYNGSLQVGIDQISETLSRIGFGVKTGVDLPSEFVGTLPSKEWKMQRYRQSWFQGDTLNTAIGQGNFLATPMQIARYTAQIAKSGEVIPHFLKSIENNNTTIENQMDENKKEIFTLFEKSQLPYIRDAMYAVANEQGGTSYRYLHNLDVKVAAKTGTAQVVGFSQTDKNRVDEKQFEYYTRSHAWLTSYAPYSKPKYVVTVLLEHGGRNITSGATVAKIYQKMIELGYFKEGHHHHHH	soluble
PLAIVTSPEIKSPGDLKGKRLMLSEVNIDSANFTHMLQGFGLSMKDIQILSTSFNIHDFIDGKVDAYSIFLTNELFDLQRLGVRYNILDPSNYGVELYDENLFGAKEFVLKNPTLVKRFIDASNRGWQYALDHPEEIVDLILERYNTQ	not soluble
MSTTAEETPTQALPTQTRTLTGWGRTAPTTAQVLSTPDVEVIARAVAQVAEQNESKPAHLQRGVIARGLGRSYGDPAQNAGGLVIDMNALNRIHRIDRDTHLVEVDAGVNLDQLMKAALPFGLWVPVLPGTRQVTIGGAIGSDIHGKNHHSAGSFGNHVVSLDLLTADGKVRTLTPKGGRNDPKGALFWATIGGMGLTGIILKATIKMTPTETAYFIADGDVTQTLDETIALHSDGSESNYEYSSAWFDAIAAPPKLGRAAISRGSLAKLDQLPAKLQKNPLAFDAPQLLTFPDVFPNGLANKFNFSMIGELWFRKSGTYRDKVQNLTQFYHPLDMFGEWNRAYGSNGFLQYQFVVPTTAVEEFKAIIRDIQKSGHYSFLNVFKLFGEGNQAPLSFPIPGWNICVDFRIKPGLNEFVTELDKRVLKFGGRLYTAKDSRTTAETFHAMYPRIDEWIATRRKYDPTNVFASDMSRRLEL	not soluble
MSLNKSVIGTKQMVVSPHYLASQAGNRILDKGGNAFDAAVAVSACLAVVYPHMTGLGGDSFWLTFHQETKAVKVYNGSGRSGKNVTRDVYKGKSAIPLRGIDSAITVPGMVDSWDAVLKEYGRLSLADVLEPARDYAQNGFPVSADQCRHTEKNIELLASTPYTADIFTRRGKAPVPGERFVQKELADSLNLIAEKGRSAFYEGDLAQRIVSHLQNNGSYMTIDDFKAHRGEWAAPVSSDYRGYSVYQAPPNSQGFTGLLTLNILENYDFTQIEHGSFEYYHVLVEALKKSFLDRDAVLTDPAFADIPLERLLDKRYAKQLAEEIGYLAIPAESRPVGSDTAYAAVIDADGNAVSFIQSLYFEFGSAVTAGDTGILLQNRGSFFSLDENHVNTLEPRKRTFHTLMPAMVCKGGKPKILYGTQGGEGQPQTQTAIITRMLDYGMHPQQAISEPRWVWGRTWGEEYEGLRVEGRFTDKTIQKLKDSGHLVEVVGDYDPLMGQAAAIKVDEEGFLQGGADPRGDGAAVGEGHHHHHH	not soluble
MAHHHHHHMRVIIQRVKNAALSVIKEESKETEKQLELFSEIKNGIICFVGIHKNDTWKDAMYIIRKCLNLRLWSDGNKSWDKSVKDLNYEILFVSQFTLFANTKKGNKPDFHLAKEPKEALAMYNKMVEQFAKDYNHEKIKTGKFGCYMNIQVTNDGPVTIFIDSHDVNLDN	not soluble
MSQAFAQPLSGYQIGDEIKNFSMLNVTNQTVLSLTDYNDQKVVVIIFTNNNCAYAKLYEQRIANLAKQYNTSGVAFLLVNPSVSNSDKFETIEAMRKKIQNDKSLYPYLADTTQSLAISFGVQRLPDAFVLKKMETSFRLVYKGSIDDNPQSAEDVSNRFLSDAISAMVLNRSIKVADTRAVGCLLKPY	not soluble
MSLCRFVAYLGRPTLLENVLVRPKNSIIMQSLHARETKYRTNGDGFGLGWYSPEVSSDPALFTSVYPAWNDRNLLHLTAKIQSPCFFAHVRSASAGGVTNYNCHPFIYGDWMLMHNGEINDFIDVKRHIRHLLDDDIYHWVKGQTDSEHLFGLFLQLAKGRDITQLSVAADVLQETINKILEVIGQFGHSGPSYFNICLTNGKKIIATRYCSHEKKKPLTLHYLIGYVLSTQGLWIKEEGNPAYVVVSSERLNDLDEGWEDVPPQHMILIDENKNIQLRPLQTLGEGHHHHHH	soluble
MNKVAQYYRELVASLNERLRNGERDIDALVEQARERVIKTGELTRTEIDELTRAVRRDLEEFAMSYEESLKEESDSVFMRVIKESLWQELADITDKTQLEWREIFQDLNHHGVYHSGEVVGLGNLVCEKCHFHLPIYTPEVLTLCPKCGYDQFQRRPFEP	not soluble
MYNDDELTEFMDFLVEQTKDSIYPMVAAKVFKQFPNRRLIPKDKRYQRFVLQLAPKMNDWNNYSIEARIRLMYALRGKVEDDFLARIEAHGTVQLNEKQRISKFTANDGTFFLEDDRKRLSLDATRLEFVKLMGFLIEKTKDAVEPLPNTKLIFQEFSQIEPVKKPNDTDIMYKFRSSLAPYMDKWNDYSIEDRVRLMFALGGKIKDGFLRTIETHGTLQLDDKRRITKYVSNDGNFKLEGIRRNVHKKEATGPEYTRFMDFLIKTTKEAVEPMRVWLVHNEFKRQEGRKFSKSGYAKRFHKKLAPNMSKWTNYKIEERTRMMFAMKGKVESDFLAQIEESGKVQLDENHLIVKYTSKNRKIKLGGETRLVEKKKRKSTNYHKMHQKRRKIIRSVTDETSLVAKWKRKSDSYYEMYQKRRKIGEKELSDTAEVEEVAPYDSDYGNVYVENLEAEDQDTQLNPFNAMSDLTTDGPSSNAHDLTMWPNDDPKQEPVFENIFIQNQYFPPEIEEVPNQGVYHVEPETKLSYINTNPGSSVTESGGIKLHKFLNLLELILTSLESDTLDDLLNDIEGIRVRINDEILPPELVITALQTFLLGITRKSRSAASAENKSSHECLRIFKYSLPWLRSPLLWELQQRVEEEIESHVIGGKIILVADVQQGIRNILFAVSN	not soluble
MGSDKIHHHHHHMNTLKKITNNISKVIIGKDESIELAAIALIAKGHILLEDVPGTGKTTLAKSLAKSVDAKFQRIQFTADTLPGDVIGLEYFNVKESDFKTRLGPIFANIVLVDEINRAVPRTQSSLLEVMEERTVTIAKQTHSLPEPFLVIATQNPLESAGTFPLPDAQLDRFLLTIRQGYPTREAEKEMMNRFQMNDPLETLHSIISSEEIITMQKRAREVLVGNDVQDYLLEIIEATRKHELIEIGVSPRGTLAFMRAIQARAILNERDYCTPDDIKQLAASICTHRLTLTIEGEMKTTKEQIMKEILHTIDVPVENVR	not soluble
